Measured values from IntAct's records for PubMed 31515488.

B1: L-fucose dehydrogenase (Homo sapiens), Q9BPX1 (parent)
chain: MATGTRYAGKVVVVTGGGRGIGAGIVRAFVNSGARVVICDKDESGGRALEQELPGAVFILCDVTQEDDVKTLVSETIRRFGRLDCVVNNAGHHPPPQRPEETSAQGFRQLLELNLLGTYTLTKLALPYLRKSQGNVINISSLVGAIGQAQAVPYVATKGAVTAMTKALALDESPYGVRVNCISPGNIWTPLWEELAALMPDPRATIREGMLAQPLGRMGQPAEVGAAAVFLASEANFCTGIELLVTGGAELGYGCKASRSTPVDAPDIPS
partner: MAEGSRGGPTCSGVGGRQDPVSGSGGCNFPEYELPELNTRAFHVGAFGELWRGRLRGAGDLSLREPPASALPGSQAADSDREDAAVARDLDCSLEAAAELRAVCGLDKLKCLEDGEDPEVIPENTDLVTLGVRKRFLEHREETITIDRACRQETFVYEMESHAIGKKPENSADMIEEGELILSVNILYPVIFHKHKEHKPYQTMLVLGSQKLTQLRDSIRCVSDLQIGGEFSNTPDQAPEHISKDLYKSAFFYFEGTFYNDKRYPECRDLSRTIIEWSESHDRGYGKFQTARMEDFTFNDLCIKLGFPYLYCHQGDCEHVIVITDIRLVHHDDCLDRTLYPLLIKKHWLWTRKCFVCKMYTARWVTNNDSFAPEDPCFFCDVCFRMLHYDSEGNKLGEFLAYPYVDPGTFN
B2: Zinc finger protein Aiolos (Homo sapiens), Q9UKT9 (parent)
chain: MEDIQTNAELKSTQEQSVPAESAAVLNDYSLTKSHEMENVDSGEGPANEDEDIGDDSMKVKDEYSERDENVLKSEPMGNAEEPEIPYSYSREYNEYENIKLERHVVSFDSSRPTSGKMNCDVCGLSCISFNVLMVHKRSHTGERPFQCNQCGASFTQKGNLLRHIKLHTGEKPFKCHLCNYACQRRDALTGHLRTHSVEKPYKCEFCGRSYKQRSSLEEHKERCRTFLQSTDPGDTASAEARHIKAEMGSERALVLDRLASNVAKRKSSMPQKFIGEKRHCFDVNYNSSYMYEKESELIQTRMMDQAINNAISYLGAEALRPLVQTPPAPTSEMVPVISSMYPIALTRAEMSNGAPQELEKKSIHLPEKSVPSERGLSPNNSGHDSTDTDSNHEERQNHIYQQNHMVLSRARNGMPLLKEVPRSYELLKPPPICPRDSVKVINKEGEVMDVYRCDHCRVLFLDYVMFTIHMGCHGFRDPFECNMCGYRSHDRYEFSSHIARGEHRALLK
partner: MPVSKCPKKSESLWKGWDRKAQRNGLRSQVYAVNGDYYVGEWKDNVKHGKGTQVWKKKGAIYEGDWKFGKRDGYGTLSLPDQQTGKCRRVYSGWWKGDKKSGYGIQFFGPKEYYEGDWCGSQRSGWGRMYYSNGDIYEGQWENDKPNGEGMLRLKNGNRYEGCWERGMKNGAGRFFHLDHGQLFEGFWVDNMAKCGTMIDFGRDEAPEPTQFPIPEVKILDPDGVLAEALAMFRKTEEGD
B3: Tuftelin-interacting protein 11 (Homo sapiens), Q9UBB9 (parent)
chain: MSLSHLYRDGEGRIDDDDDERENFEITDWDLQNEFNPNRQRHWQTKEEATYGVWAERDSDDERPSFGGKRARDYSAPVNFISAGLKKGAAEEAELEDSDDEEKPVKQDDFPKDFGPRKLKTGGNFKPSQKGFAGGTKSFMDFGSWERHTKGIGQKLLQKMGYVPGRGLGKNAQGIINPIEAKQRKGKGAVGAYGSERTTQSMQDFPVVDSEEEAEEEFQKELSQWRKDPSGSKKKPKYSYKTVEELKAKGRISKKLTAPQKELSQVKVIDMTGREQKVYYSYSQISHKHNVPDDGLPLQSQQLPQSGKEAKAPGFALPELEHNLQLLIDLTEQEIIQNDRQLQYERDMVVNLFHELEKMTEVLDHEERVISNLSKVLEMVEECERRMQPDCSNPLTLDECARIFETLQDKYYEEYRMSDRVDLAVAIVYPLMKEYFKEWDPLKDCTYGTEIISKWKSLLENDQLLSHGGQDLSADAFHRLIWEVWMPFVRNIVTQWQPRNCDPMVDFLDSWVHIIPVWILDNILDQLIFPKLQKEVENWNPLTDTVPIHSWIHPWLPLMQARLEPLYSPIRSKLSSALQKWHPSDSSAKLILQPWKDVFTPGSWEAFMVKNIVPKLGMCLGELVINPHQQHMDAFYWVIDWEGMISVSSLVGLLEKHFFPKWLQVLCSWLSNSPNYEEITKWYLGWKSMFSDQVLAHPSVKDKFNEALDIMNRAVSSNVGAYMQPGARENIAYLTHTERRKDFQYEAMQERREAENMAQRGIGVAASSVPMNFKDLIETKAEEHNIVFMPVIGKRHEGKQLYTFGRIVIYIDRGVVFVQGEKTWVPTSLQSLIDMAK
partner: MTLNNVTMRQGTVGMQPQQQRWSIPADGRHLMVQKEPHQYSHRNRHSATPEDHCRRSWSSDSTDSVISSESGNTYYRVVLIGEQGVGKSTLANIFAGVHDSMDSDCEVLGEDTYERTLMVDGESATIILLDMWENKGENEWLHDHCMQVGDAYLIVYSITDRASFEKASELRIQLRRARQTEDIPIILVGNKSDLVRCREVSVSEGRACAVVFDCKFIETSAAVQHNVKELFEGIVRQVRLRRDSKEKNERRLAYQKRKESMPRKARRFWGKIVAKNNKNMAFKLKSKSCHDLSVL
B4: Bcl-2-interacting killer (Homo sapiens), Q13323 (parent)
chain: MSEVRPLSRDILMETLLYEQLLEPPTMEVLGMTDSEEDLDPMEDFDSLECMEGSDALALRLACIGDEMDVSLRAPRLAQLSEVAMHSLGLAFIYDQTEDIRDVLRSFMDGFTTLKENIMRFWRSPNPGSWVSCEQVLLALLLLLALLLPLLSGGLHLLLK
B5: Copper homeostasis protein cutC homolog (Homo sapiens), Q9NTM9 (parent)
chain: MKRQGASSERKRARIPSGKAGAANGFLMEVCVDSVESAVNAERGGADRIELCSGLSEGGTTPSMGVLQVVKQSVQIPVFVMIRPRGGDFLYSDREIEVMKADIRLAKLYGADGLVFGALTEDGHIDKELCMSLMAICRPLPVTFHRAFDMVHDPMAALETLLTLGFERVLTSGCDSSALEGLPLIKRLIEQAKGRIVVMPGGGITDRNLQRILEGSGATEFHCSARSTRDSGMKFRNSSVAMGASLSCSEYSLKVTDVTKVRTLNAIAKNILV
partner: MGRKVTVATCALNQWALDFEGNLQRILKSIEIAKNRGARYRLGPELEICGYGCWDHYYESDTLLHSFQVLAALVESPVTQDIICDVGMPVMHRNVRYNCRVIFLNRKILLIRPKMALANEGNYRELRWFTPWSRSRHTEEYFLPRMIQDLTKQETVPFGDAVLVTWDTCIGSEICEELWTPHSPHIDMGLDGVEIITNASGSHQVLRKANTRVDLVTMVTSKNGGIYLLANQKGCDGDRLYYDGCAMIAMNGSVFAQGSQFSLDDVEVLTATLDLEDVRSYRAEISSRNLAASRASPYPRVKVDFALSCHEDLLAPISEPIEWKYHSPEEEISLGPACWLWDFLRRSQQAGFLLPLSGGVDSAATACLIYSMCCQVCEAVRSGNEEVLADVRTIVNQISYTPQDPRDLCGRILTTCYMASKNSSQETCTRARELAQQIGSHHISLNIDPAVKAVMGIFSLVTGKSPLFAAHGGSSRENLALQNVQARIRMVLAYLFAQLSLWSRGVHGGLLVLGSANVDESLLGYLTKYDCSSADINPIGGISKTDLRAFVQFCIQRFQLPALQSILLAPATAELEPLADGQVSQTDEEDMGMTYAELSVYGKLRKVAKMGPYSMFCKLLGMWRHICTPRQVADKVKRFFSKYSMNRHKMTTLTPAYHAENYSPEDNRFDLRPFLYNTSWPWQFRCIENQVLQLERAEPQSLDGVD
B6: Gem-associated protein 7 (Homo sapiens), Q9H840 (parent)
chain: MQTPVNIPVPVLRLPRGPDGFSRGFAPDGRRAPLRPEVPEIQECPIAQESLESQEQRARAALRERYLRSLLAMVGHQVSFTLHEGVRVAAHFGATDLDVANFYVSQLQTPIGVQAEALLRCSDIISYTFKP
B7: Proline-rich protein 3 (Homo sapiens), P79522 (parent)
chain: MPKRKKQNHHQPPTQQQPPLPEREETGDEEDGSPIGPPSLLGPPPMANGKPGDPKSALHRGPPGSRGPLIPPLLSLPPPPWGRGPIRRGLGPRSSPYGRGWWGVNAEPPFPGPGHGGPTRGSFHKEQRNPRRLKSWSLIKNTCPPKDDPQVMEDKSDRPVCRHFAKKGHCRYEDLCAFYHPGVNGPPL
partner: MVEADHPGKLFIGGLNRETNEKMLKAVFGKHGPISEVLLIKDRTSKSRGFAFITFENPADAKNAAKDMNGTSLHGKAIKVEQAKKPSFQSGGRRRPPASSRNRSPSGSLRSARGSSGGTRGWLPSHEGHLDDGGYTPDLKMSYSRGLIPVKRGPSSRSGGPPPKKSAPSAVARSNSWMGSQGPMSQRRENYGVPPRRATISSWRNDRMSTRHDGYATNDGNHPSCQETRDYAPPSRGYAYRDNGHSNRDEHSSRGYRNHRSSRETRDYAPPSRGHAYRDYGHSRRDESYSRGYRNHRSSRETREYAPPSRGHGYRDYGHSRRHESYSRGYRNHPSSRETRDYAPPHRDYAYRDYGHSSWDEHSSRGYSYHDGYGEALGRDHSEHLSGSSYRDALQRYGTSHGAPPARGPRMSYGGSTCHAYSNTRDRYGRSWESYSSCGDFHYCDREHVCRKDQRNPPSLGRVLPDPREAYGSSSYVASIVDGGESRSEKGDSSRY

Variants of: B1
Settings: with snpc3_human SNAPC3, Q92966

Variant	effect of a mutation on the interaction
R130W	disrupting interaction strength
A56T	with no effect
G16W	disrupting interaction strength

Variants of: B2
Settings: with morn3_human MORN3, Q6PF18

Variant	effect of a mutation on the interaction
N119D	with no effect
A24V	with no effect

Variants of: B3
Settings: with gem_human GEM

Variant	effect of a mutation on the interaction
S688L	with no effect
R8Q	with no effect

Variants of: B4
Settings: with BCL2L1, Q07817
BCL2L1, Q07817, sequence (Q07817 whole entry): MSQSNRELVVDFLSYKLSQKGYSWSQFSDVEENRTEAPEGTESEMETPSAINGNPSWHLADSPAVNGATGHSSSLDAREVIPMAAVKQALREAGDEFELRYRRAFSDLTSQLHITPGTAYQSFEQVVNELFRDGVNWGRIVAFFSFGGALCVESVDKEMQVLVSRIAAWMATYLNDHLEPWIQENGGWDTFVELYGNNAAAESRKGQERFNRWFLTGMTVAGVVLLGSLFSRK

Variant	effect of a mutation on the interaction
D69E	with no effect

Variants of: B5
Settings: with nade_human NADSYN1, Q6IA69

Variant	effect of a mutation on the interaction
P77L	disrupting interaction strength

Variants of: B6
Settings: with gemi6_human GEMIN6, Q8WXD5
gemi6_human GEMIN6, Q8WXD5, sequence (Q8WXD5 whole entry): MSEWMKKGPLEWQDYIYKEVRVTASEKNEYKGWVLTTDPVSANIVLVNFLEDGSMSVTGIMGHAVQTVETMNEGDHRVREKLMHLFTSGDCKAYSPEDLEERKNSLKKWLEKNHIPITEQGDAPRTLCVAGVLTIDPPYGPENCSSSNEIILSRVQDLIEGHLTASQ

Variant	effect of a mutation on the interaction
R68C	with no effect

Variants of: B7
Settings: with rby1f_human RBMY1F

Variant	effect of a mutation on the interaction
R87W	with no effect
